Measurements published in PMC3735830 (Nature structural & molecular biology, 2013).

Experiments:
Experiment in all cases: co-IP
[1] = molecular target: Origin Recognition Complex (ORC) (S. cerevisiae, UniProt P54784;P32833;P54790;P54791;P50874;P38826)
Mcm4 = molecular target: T1, Mcm4 (S. cerevisiae, UniProt P30665 1-933)
T1 sequence: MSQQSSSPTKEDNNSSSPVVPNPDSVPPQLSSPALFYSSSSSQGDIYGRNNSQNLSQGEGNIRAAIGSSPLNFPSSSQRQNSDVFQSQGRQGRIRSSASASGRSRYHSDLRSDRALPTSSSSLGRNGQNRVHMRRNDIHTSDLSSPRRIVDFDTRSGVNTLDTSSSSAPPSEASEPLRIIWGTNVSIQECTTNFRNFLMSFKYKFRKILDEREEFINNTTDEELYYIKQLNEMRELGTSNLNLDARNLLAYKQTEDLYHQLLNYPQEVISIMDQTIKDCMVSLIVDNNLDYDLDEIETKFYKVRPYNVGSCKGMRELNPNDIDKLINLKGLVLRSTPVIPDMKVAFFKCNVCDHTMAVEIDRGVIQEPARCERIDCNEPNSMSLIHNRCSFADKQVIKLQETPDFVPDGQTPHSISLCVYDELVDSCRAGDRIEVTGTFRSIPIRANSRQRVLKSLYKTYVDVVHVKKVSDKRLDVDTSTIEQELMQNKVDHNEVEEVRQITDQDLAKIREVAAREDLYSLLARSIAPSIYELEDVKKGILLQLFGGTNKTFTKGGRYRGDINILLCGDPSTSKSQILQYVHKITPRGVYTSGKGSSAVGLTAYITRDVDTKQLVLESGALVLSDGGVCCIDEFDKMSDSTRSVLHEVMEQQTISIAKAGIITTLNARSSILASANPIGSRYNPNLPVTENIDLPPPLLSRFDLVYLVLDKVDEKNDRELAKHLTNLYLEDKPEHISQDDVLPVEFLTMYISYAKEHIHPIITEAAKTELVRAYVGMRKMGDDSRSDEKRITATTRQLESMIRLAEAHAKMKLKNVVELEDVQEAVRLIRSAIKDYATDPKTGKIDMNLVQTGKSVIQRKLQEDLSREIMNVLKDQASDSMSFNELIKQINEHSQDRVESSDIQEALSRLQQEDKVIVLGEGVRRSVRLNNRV

Mcm3 = Mcm3 (S. cerevisiae, UniProt P24279 1-971)
MCM2-7 = MCM2-7 (S. cerevisiae, UniProt P29469;P24279;P30665;P29496;P53091;P38132)
MCM2-7-ΔC3 = MCM2-7-ΔC3 (S. cerevisiae, UniProt P29469;P24279;P30665;P29496;P53091;P38132)
MCM2-7-ΔC3, sequence (P24279 1-739, stated change not applied, chain 2 of 4): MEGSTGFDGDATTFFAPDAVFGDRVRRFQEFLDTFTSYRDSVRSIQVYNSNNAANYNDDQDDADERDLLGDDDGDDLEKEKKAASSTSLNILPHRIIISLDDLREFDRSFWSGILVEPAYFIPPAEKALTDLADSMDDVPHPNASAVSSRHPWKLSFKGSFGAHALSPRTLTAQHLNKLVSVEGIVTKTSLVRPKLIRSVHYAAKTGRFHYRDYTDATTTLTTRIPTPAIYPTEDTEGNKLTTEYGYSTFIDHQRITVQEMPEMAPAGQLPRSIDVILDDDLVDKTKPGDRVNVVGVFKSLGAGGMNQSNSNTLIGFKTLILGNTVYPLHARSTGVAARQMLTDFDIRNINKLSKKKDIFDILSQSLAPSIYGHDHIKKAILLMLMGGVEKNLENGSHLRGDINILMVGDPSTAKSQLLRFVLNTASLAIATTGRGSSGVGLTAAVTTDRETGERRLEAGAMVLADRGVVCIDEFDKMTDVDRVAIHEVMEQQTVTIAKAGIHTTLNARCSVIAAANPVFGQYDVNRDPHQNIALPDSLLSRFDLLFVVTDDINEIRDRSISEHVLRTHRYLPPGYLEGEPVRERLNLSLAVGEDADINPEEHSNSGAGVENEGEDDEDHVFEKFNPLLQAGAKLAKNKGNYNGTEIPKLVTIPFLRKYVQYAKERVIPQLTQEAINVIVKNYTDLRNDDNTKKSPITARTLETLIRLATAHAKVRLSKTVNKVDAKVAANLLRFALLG
MCM2-7-ΔC3, sequence (P29496 whole entry, stated change not applied, chain 4 of 4): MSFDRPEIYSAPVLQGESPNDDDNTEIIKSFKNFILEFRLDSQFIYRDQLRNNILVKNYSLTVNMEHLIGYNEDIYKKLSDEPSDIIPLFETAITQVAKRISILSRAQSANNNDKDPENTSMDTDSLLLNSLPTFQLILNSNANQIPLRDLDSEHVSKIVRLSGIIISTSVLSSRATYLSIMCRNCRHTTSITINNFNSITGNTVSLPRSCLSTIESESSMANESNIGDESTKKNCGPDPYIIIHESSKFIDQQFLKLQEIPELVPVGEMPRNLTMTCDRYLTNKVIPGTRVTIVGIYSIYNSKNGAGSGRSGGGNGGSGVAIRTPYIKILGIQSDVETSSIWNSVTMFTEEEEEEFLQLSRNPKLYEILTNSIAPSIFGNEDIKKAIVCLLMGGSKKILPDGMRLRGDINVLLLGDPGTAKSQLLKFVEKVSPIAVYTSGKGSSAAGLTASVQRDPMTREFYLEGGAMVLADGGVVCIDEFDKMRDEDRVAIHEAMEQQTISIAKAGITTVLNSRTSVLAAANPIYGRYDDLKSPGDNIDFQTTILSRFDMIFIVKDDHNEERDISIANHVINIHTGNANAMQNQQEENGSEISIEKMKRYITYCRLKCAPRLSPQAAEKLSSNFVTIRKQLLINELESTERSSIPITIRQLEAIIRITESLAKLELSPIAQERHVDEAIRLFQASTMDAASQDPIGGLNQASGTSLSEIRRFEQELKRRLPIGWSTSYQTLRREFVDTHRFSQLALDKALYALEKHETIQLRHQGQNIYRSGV
MCM2-7-ΔC3, sequence (P53091 whole entry, stated change not applied, chain 5 of 4): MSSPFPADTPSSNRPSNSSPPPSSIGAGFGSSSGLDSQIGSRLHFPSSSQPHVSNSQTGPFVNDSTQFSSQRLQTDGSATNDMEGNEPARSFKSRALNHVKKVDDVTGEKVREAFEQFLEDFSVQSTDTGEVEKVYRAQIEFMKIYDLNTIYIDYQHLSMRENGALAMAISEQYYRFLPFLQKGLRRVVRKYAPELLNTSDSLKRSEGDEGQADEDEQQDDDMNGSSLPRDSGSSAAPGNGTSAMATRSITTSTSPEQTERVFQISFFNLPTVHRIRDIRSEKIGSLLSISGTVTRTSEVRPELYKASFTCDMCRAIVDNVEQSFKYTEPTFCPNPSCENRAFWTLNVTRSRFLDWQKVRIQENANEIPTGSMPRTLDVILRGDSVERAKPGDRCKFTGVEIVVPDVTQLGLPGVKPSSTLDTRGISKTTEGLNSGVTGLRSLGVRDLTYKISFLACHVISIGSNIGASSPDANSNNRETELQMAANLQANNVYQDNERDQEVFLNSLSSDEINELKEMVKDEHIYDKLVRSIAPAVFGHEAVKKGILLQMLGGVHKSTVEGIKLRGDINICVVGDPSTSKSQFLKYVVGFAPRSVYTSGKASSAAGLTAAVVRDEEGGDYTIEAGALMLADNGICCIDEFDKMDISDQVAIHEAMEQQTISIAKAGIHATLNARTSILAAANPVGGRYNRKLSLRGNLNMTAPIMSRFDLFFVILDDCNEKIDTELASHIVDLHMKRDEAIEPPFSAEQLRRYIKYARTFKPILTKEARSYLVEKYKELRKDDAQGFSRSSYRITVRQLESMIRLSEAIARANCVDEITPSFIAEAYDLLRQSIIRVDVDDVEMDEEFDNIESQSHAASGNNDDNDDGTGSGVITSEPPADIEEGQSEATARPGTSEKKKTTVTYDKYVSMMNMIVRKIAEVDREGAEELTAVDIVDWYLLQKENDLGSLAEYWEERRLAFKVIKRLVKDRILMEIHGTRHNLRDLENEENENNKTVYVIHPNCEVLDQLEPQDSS
MCM2-7-ΔC3, sequence (P38132 whole entry, stated change not applied, chain 6 of 4): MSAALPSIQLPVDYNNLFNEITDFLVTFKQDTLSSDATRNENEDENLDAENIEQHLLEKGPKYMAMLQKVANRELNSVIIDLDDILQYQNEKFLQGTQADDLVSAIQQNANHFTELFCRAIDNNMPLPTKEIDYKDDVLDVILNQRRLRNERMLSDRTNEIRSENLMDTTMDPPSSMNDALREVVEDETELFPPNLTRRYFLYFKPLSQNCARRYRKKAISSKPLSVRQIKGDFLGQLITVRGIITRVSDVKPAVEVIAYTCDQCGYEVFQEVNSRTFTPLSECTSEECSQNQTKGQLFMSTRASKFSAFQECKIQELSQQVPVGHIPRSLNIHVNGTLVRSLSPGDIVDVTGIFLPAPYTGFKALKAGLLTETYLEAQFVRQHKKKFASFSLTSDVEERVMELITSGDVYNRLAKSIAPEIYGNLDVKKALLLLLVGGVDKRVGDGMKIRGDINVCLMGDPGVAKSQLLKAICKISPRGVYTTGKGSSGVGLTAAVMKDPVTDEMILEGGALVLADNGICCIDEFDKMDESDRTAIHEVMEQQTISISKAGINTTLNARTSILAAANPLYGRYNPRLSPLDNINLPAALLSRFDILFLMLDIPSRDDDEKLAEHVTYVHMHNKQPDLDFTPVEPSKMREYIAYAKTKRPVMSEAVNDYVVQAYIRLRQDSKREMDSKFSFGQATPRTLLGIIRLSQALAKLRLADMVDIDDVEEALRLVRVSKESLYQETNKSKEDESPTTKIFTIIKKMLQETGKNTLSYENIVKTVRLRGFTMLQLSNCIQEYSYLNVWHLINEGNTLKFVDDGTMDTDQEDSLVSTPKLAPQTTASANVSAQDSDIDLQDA

Mcm3, sequence (P24279 whole entry): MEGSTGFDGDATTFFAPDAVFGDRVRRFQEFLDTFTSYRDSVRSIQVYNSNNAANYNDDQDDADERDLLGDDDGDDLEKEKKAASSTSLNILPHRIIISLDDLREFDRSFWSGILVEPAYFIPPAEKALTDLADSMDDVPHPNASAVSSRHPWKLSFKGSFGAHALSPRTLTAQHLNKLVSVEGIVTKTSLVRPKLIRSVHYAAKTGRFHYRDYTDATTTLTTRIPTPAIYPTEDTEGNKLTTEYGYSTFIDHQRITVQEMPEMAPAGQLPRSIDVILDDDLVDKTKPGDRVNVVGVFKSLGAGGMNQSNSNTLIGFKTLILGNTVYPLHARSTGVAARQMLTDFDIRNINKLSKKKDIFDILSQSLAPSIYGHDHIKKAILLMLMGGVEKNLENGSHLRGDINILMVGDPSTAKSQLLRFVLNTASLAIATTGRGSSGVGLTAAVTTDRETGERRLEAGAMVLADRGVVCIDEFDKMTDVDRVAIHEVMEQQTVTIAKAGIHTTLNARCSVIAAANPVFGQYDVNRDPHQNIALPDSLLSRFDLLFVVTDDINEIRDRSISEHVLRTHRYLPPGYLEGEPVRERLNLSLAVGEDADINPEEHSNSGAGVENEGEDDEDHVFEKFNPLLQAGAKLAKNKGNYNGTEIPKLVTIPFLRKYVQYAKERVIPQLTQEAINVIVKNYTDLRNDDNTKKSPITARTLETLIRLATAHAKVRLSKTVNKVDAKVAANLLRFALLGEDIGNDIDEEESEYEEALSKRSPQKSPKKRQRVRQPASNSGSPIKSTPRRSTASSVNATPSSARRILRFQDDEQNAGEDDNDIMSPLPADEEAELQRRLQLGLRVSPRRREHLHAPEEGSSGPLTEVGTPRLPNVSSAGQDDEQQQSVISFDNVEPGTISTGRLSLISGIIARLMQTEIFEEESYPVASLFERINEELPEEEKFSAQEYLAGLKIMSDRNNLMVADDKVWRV
MCM2-7, sequence (P24279 whole entry, chain 2 of 4): as the sequence (P24279 whole entry) above
MCM2-7, sequence (P29496 whole entry, chain 4 of 4): as the sequence (P29496 whole entry, stated change not applied, chain 4 of 4) above
MCM2-7, sequence (P53091 whole entry, chain 5 of 4): as the sequence (P53091 whole entry, stated change not applied, chain 5 of 4) above
MCM2-7, sequence (P38132 whole entry, chain 6 of 4): as the sequence (P38132 whole entry, stated change not applied, chain 6 of 4) above

B1: Mcm2 (natural protein)
chain: MSDNRRRRREEDDSDSENELPPSSPQQHFRGGMNPVSSPIGSPDMINPEGDDNEVDDVPDIDEVEEQMNEVDLMDDNMYEDYAADHNRDRYDPDQVDDREQQELSLSERRRIDAQLNERDRLLRNVAYIDDEDEEQEGAAQLDEMGLPVQRRRRRRQYEDLENSDDDLLSDMDIDPLREELTLESLSNVKANSYSEWITQPNVSRTIARELKSFLLEYTDETGRSVYGARIRTLGEMNSESLEVNYRHLAESKAILALFLAKCPEEMLKIFDLVAMEATELHYPDYARIHSEIHVRISDFPTIYSLRELRESNLSSLVRVTGVVTRRTGVFPQLKYVKFNCLKCGSILGPFFQDSNEEIRISFCTNCKSKGPFRVNGEKTVYRNYQRVTLQEAPGTVPPGRLPRHREVILLADLVDVSKPGEEVEVTGIYKNNYDGNLNAKNGFPVFATIIEANSIKRREGNTANEGEEGLDVFSWTEEEEREFRKISRDRGIIDKIISSMAPSIYGHRDIKTAVACSLFGGVPKNVNGKHSIRGDINVLLLGDPGTAKSQILKYVEKTAHRAVFATGQGASAVGLTASVRKDPITKEWTLEGGALVLADKGVCLIDEFDKMNDQDRTSIHEAMEQQSISISKAGIVTTLQARCSIIAAANPNGGRYNSTLPLAQNVSLTEPILSRFDILCVVRDLVDEEADERLATFVVDSHVRSHPENDEDREGEELKNNGESAIEQGEDEINEQLNARQRRLQRQRKKEEEISPIPQELLMKYIHYARTKIYPKLHQMDMDKVSRVYADLRRESISTGSFPITVRHLESILRIAESFAKMRLSEFVSSYDLDRAIKVVVDSFVDAQKVSVRRQLRRSFAIYTLGH
[1]
  binding result: binds
Mcm4
  binding result: binds
Mcm3
  binding result: binds

B2: MBP-Cdc6 (natural protein)
chain: MSAIPITPTKRIRRNLFDDAPATPPRPLKRKKLQFTDVTPESSPEKLQFGSQSIFLRTKALLQKSSELVNLNSSDGALPARTAEYEQVMNFLAKAISEHRSDSLYITGPPGTGKTAQLDMIIRQKFQSLPLSLSTPRSKDVLRHTNPNLQNLSWFELPDGRLESVAVTSINCISLGEPSSIFQKIFDSFQDLNGPTLQIKNMQHLQKFLEPYHKKTTFVVVLDEMDRLLHANTSETQSVRTILELFLLAKLPTVSFVLIGMANSLDMKDRFLSRLNLDRGLLPQTIVFQPYTAEQMYEIVIQKMSSLPTIIFQPMAIKFAAKKCAGNTGDLRKLFDVLRGSIEIYELEKRFLLSPTRGSLNSAQVPLTPTTSPVKKSYPEPQGKIGLNYIAKVFSKFVNNNSTRTRIAKLNIQQKLILCTIIQSLKLNSDATIDESFDHYIKAITKTDTLAPLQRNEFLEICTILETCGLVSIKKTKCKGKTKRFVDKIDVDLDMREFYDEMTKISILKPFLH
MCM2-7
  binding result: binds
MCM2-7-ΔC3
  binding result: binds
